According to US20100098683A1 (Dana-Farber, published 2010):

Target: T1, hFc-MUC1-C/ED (MUC1-C extracellular domain fused to human Fc) (human, UniProt P15941 1098-1155, secreted from CHO-K1 cells; the filing reports N-linked glycosylation of MUC1-C at Asn-36)
T1 construct: Purified on protein A; also called hFc-MUC1-C extracellular domain; not shown: human Fc fragment (hFc) amplified from the CD5-IgG1 plasmid (Aruffo et al., 1990)
T1 sequence: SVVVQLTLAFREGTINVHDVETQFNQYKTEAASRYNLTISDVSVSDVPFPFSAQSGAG
Test: SPR (BIACORE 3000, 25 C), galectin-3(63-250) amine-coupled to a CM5 chip, hFc-MUC1-C/ED injected at 0-100 nM, 1:1 binding with drifting baseline; galectin-3(63-250), CRD fragment

B1: galectin-3(63-250) (ligand)
chain: YHGAPGAYPGAPAPGVYPGPPSGPGAYPSSGQPSAPGAYPATGPYGAPAGPLIVPYNLPLPGGVVPRMLITILGTVKPNANRIALDFQRGNDVAFHFNPRFNENNRRVIVCNTKLDNNWGREERQSVFPFESGKPFKIQVLVEPDHFKVAVNDAHLLQYNHRVKKLNEISKLGISGDIDLTSASYTMI
notes: Fragment that contains the CRD, purified from E. coli and coupled to a CM5 chip
Q: Which Kd does the source give for B1 here?
A: The Kd was 9.8 nM.
